In US12522635B2, “Amyloid peptide variants” (Loyola Marymount University, priority 2019, dated 2026):

Experiments:
[1] = biological target: T1, human IAPP (hIAPP) (Homo sapiens, UniProt P10997); test: Atomic force microscopy (AFM) of hIAPP fibril formation when mixed with IAPP peptides; assay type: biochemical; conditions: for inhibition of hIAPP fibril formation, AFM: 37 μM hIAPP and 75 μM peptide, 37° C. with shaking for 40 minutes; for inhibition of hIAPP fiber formation: FIG. 22: 37 μM hIAPP mixed with 37 μM peptide, 37° C. with shaking for 30 minutes
T1 construct: This 37 amino acid polypeptide is co-secreted from pancreatic β-islet cells with insulin
T1 sequence (P10997 34-70 limits assumed): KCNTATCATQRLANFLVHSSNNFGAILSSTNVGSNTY
Description: Samples labeled with hIAPP contained 40 μM hIAPP. The sample with pramlintide and hIAPP contained a 2:1 molar mixture (80 μM Pramlintide mixed with 40 μM hIAPP). The samples with raccoon IAPP and Pramlintide alone contained 40 μM of the indicated peptides. Each sample was incubated for 40 minutes at 37° C. with shaking; conditions known to promote hIAPP amyloid formation. All scans show raw data with no flattening and are […].
Each sample contained 37 μM hIAPP and 75 μM of the indicated peptide. Samples were incubated at 37° C. with shaking for 40 minutes. All scans show raw data with no flattening and are […].
Each sample contained 37 μM hIAPP mixed with 37 μM of the indicated peptide. Samples were incubated at 37° C. with shaking for 30 minutes before depositing each sample onto freshly cleaved mica.
Samples of hIAPP with or without animal IAPP were prepared as described in Example 1 and were then incubated with shaking at 37° C. for 40 minutes. After this incubation, 17 μL of each sample was deposited onto freshly cleaved mica. Samples were incubated for 5 minutes at room temperature before washing with 200 μL sterile water. After drying, the samples were scanned using an MFP-3D atomic force microscope (Asylum Research) set on A/C mode and a 240 m silicon cantilever (Olympus).
Many of the animal IAPP variants are known to likewise form fibrils and yield amyloid-plaques when scanned via AFM. […] This is in spite of the fact that all of these IAPP peptides (except polar bear IAPP) are known to aggregate and form fibrils themselves under these or similar conditions

[2] = biological target: T1, human IAPP (hIAPP); test: Thioflavin T binding assay of hIAPP aggregation when mixed with IAPP peptides; assay type: biochemical; conditions: for inhibition of hIAPP aggregation, thioflavin T binding: hIAPP mixed with peptide, incubated at 37° C. with shaking; for inhibition of hIAPP aggregation (summary statement): peptide mixed with hIAPP, no single assay (thioflavin T and AFM)
From the text: Any of a number of assays known to the art can be used to evaluate the ability of IAPP peptides to inhibit hIAPP aggregation and/or protect cells from hIAPP toxicity. Thioflavin T (ThT) binding is one such technique for identifying amyloid formation in real time. Human IAPP is known to bind thioflavin T during aggregation and amyloid formation, and upon binding to amyloid fibrils ThT will give a strong fluorescence signal at approximately 482 nm when excited at 450 nm. ThT fluorescence correlates linearly with amyloid concentration in a sample and therefore can be used to determine the amount of aggregation in a sample. This technique can therefore be used for identifying substances with amyloid-inhibiting potential when such substances are mixed with human IAPP under conditions known to result in the formation of aggregates by hIAPP. Determining the extent of aggregation can also be determined using other techniques, such as Atomic Force Microscopy (AFM), which can provide information about particle dimensions, shape, and substructure with nanometer resolution. In the foregoing assays and others that can be used by one of skill in the art, significant inhibition can be determined using a t-test by measuring the difference between hIAPP and hIAPP combined with an IAPP peptide.
To identify IAPP peptides having inhibitory potential against hIAPP aggregation, the peptides shown in FIG. 1 from a number of species (cow, degu, guinea pig, horse, pig, rat, and sheep[…]) were mixed with hIAPP at a 2:1 molar ratio of animal peptide to hIAPP and incubated under conditions known to promote hIAPP aggregation and fibril formation. IAPP alone, or hIAPP mixed with an animal IAPP, was pipetted into a glass tube and the HFIP was removed under speed-vacuum. The resulting peptide sample was dissolved in 20 mM Tris buffer pH 7.4.
37 μM human IAPP was mixed with 75 μM of each indicated animal IAPP. Aggregation was initiated by incubating samples at 37° C. with shaking at 200 rpm for 40 minutes. At indicated time points, a 17 μL aliquot of each sample was mixed with 663 μL of 50.0 μM thioflavin T in 20 mM Tris buffer (pH 7.4). Thioflavin T fluorescence emission was then recorded at 488 nm using a Hitachi F-7000 fluorescence spectrophotometer.
After 40 minutes, these samples were monitored for their ability to bind thioflavin T (see FIG. 2) and their ability to form fibrils as identified with atomic force microscopy.
Human IAPP (37 μM) was mixed with each of the indicated Weddell seal variants (at 75 μM) and incubated for 30 minutes at 37° C. with shaking at 200 rpm. The Weddell seal IAPP peptides were likewise subjected to atomic force microscopy as described in Example 2.
Human IAPP was mixed with each of the indicated raccoon variants and incubated at 37° C. with shaking.
Human IAPP was mixed with each of the indicated chicken variants and incubated at 37° C. with shaking. […] However, it was able to protect cells in MTT assays, so it is believed to inhibit formation of toxic oligomers while having a lesser effect on inhibiting the formation of fibers (which are less toxic and less able to bind ThT).
Human IAPP was mixed with each of the indicated chicken variants and incubated at 37° C. with shaking.

[3] = system: RIN-m cells; test: MTT viability assay, peptide alone or mixed with hIAPP; assay type: cell-based; conditions: for toxicity of peptide to cells: peptide alone, MTT assay, pancreatic (RIN-m) cells; for rescue / protection of cells from hIAPP toxicity (words): hIAPP mixed with peptide 1:1, MTT assay
From the text: Cytoprotection can likewise be measured by a number of assays known to the art. One such assay is the MTT assay, which is a colorimetric assay for assessing cell metabolic activity. NAD(P)H-dependent cellular oxidoreductase enzymes in the cytosolic compartment of a cell reduces the tetrazolium dye MTT 3-(4,5-dimethylthiazol-2-yl)-2,5-diphenyltetrazolium bromide to an insoluble form, formazan, which has a purple color. The reduction of MTT (and other tetrazolium dyes) depends on the cellular metabolic activity, so a loss of color in the course of performing an MTT assay indicates low metabolic activity, and is thus an indicator of cell damage and death.
To test cell viability, a MTT colorimetric assay measuring the conversion of yellow tetrazolium salt into purple formazan crystal catalyzed by a mitochondrial reductase was used. Cell viability studies were performed using RIN-m cells (ATCC, CRL-2057). An equal number of RIN-m cells were plated in triplicate and incubated overnight in 96-well plates. The next day, fresh RPMI-1640 with phenol red supplemented with 10% FBS was added to cells. Hexafluoroisopropanol (HFIP) was removed from each individual human and animal IAPP using a centrivap concentrator (LabOnco). All IAPP peptide samples were re-suspended in RPMI-1640 with 10% FBS. To ensure even re-suspension, each resulting IAPP-containing vial was scraped with a pipette tip six times and vortexed (Vortex Genie Mixer) for 15 seconds. The whole process, from drying each IAPP peptide to adding each IAPP peptide to the cells was uniform to ensure that each sample was incubated for an equal amount of time with each IAPP peptide. IAPP peptides were added to cells and incubated for 46 hours at 37° C. Post-incubation, the media in each well was replaced by fresh DMEM/F-12 without phenol red. MTT (3-(4,5-dimethyl-2-thiazolyl)-2,5-diphenyl-tetrazolium bromide) was added into each well and incubated at 37° C. for 2 hours. Formazan crystals, formed on the bottom of the wells, were re-suspended in solubilization buffer (20% SDS and 50% dimethylformamide). The absorbance in each well was taken at 570 nm using a Multiskan FC Microplate Photometer (Thermos Fisher Scientific). Media were obtained from ATCC. All incubations took place in a water jacketed incubator in 5% carbon dioxide at 37° C. (Shell Lab).
The MTT viability assay was used to measure cell viability of RIN-m cells upon addition of hIAPP alone, the addition of each animal IAPP peptide alone, and hIAPP mixed with each animal IAPP peptide (results shown in FIG. 5). RIN-m cells alone were used as a control and set to 100% cell viability. […] Addition of raccoon IAPP to hIAPP increased the cell viability from 55% to an average of 72% (p=0.005705). Addition of chicken IAPP variant to hIAPP increased cell viability to an average of 76% (p=0.013556).

inhibition of hIAPP aggregation, thioflavin T binding [2] | Substance | inhibition of hIAPP fibril formation, AFM [1] | toxicity of peptide to cells [3] | inhibition of hIAPP aggregation (summary statement) [2] | rescue / protection of cells from hIAPP toxicity (words) [3] | inhibition of hIAPP fiber formation [1] | rescue / protection of cells from hIAPP toxicity (words) ([3]; listed as Ch-122L) | rescue / protection of cells from hIAPP toxicity (words) ([3]; listed as Rac-L26Y)
inhibited hIAPP aggregation | KCNTATCATQRLANFLVHSSNNLGAILSPTNVGSNTY (KTATCATQRLANFLVHSSNNLGAILSPTNVGSNTY; Leptonychotes weddellii mutation) [WS_LP] | strong inhibitors of hIAPP fiber formation | toxic to cells, with and without addition of hIAPP | – | – | – | – | –
inhibited hIAPP aggregation | KCNTATCATQRLANFLVRSSNNLGAILSSTNVGSNTY (Leptonychotes weddellii mutation) [WS_RL] | strong inhibitors of hIAPP fiber formation | – | – | rescued cells from hIAPP toxicity | – | – | –
inhibited hIAPP aggregation | KCNTATCVTQRLANFLLRSSNNLGAILSP (Procyon lotor truncation) [R1-29] | did | – | – | rescued cells from hIAPP-induced cytotoxicity | – | – | –

More lines, now with the values behind:

Substance | inhibition of hIAPP aggregation, thioflavin T binding [2] | inhibition of hIAPP fibril formation, AFM [1] | toxicity of peptide to cells [3] | inhibition of hIAPP aggregation (summary statement) [2] | rescue / protection of cells from hIAPP toxicity (words) [3] | inhibition of hIAPP fiber formation [1] | rescue / protection of cells from hIAPP toxicity (words) ([3]; listed as Ch-122L) | rescue / protection of cells from hIAPP toxicity (words) ([3]; listed as Rac-L26Y)
KCNTATCATQRLANFLVRSGNLFGAILSPTNVGSNTY (listed as Ursus maritimus) [polar bear IAPP] | – | significant ability to prevent fiber formation | – | able to inhibit such aggregation | not capable of protecting RIN-m cells from the toxic effects of hIAPP | – | – | –
KCNTATCVTQRLADFLVRSSSNIGAIY (Gallus gallus truncation) [C1-27] | inhibited hIAPP aggregation | did | – | – | rescued cells from hIAPP-induced cytotoxicity | – | – | –
KCNTATCVTQRLADFLVRSSSNIGAIYSP (Gallus gallus truncation) [C1-29] | inhibited hIAPP aggregation | amyloid fibers were formed and did | – | – | rescued cells from hIAPP-induced cytotoxicity | – | – | –
KCNTATCVTQRLADFLVRSSSNLGAIYSPTNVGSNTY (Gallus gallus mutation) [Ch_I22L] | inhibited hIAPP aggregation | – | minimal inherent toxicity | – | rescued cells from hIAPP-induced cytotoxicity | able to inhibit hIAPP fiber formation | rescue cells from hIAPP toxicity | –
KCNTATCVTQRLANFLLRSSNNLGAIL (Procyon lotor truncation) [R1-27] | inhibited hIAPP aggregation | did | – | – | rescued cells from hIAPP-induced cytotoxicity | – | – | –
KCNTATCVTQRLANFLLRSSNNLGAIYSPTNVGSNTY (Procyon lotor mutation) [Rac_L26Y] | inhibited hIAPP aggregation | – | minimal inherent toxicity | – | improved cell viability in the presence of hIAPP | stood out for its ability to inhibit hIAPP fiber formation | – | rescue cells from hIAPP toxicity
rat IAPP: naturally occurring IAPP peptide of rat origin (FIG. 1) | – | either had no effect on hIAPP fibril formation or appeared to promote fibrils with hIAPP | improved effect on cell viability | failed to inhibit the aggregation of human IAPP | not capable of protecting RIN-m cells from the toxic effects of hIAPP | – | – | –
